Test results taken from patent publication US11857609B2, “Ocular delivery of cell permeant therapeutics for the treatment of retinal edema” (The Trustees of Columbia University in the City of New York, dated 2024).

Assays:
[1] = target: T1, activated (cleaved) caspase-9 from mouse retina (mouse, UniProt Q8C3Q9); test: co-immunoprecipitation from mouse retina lysates after RVO and Pen1-XBIR3: anti-His IP, western blot for clCasp9, 24 h
Excerpt: (§1) To show target engagement, after RVO, mice were given Penl-XBIR3 and retinas were harvested and immunoprecipitated with anti-His followed by western blot for clCasp9 (FIG. 5, right panel).

[2] = target: T1, activated (cleaved) caspase-9 from …; test: co-immunoprecipitation from mouse retina lysates after RVO and Pen1-XBIR3: anti-His IP, western blot for clCasp9, 4 h
Excerpt: as §1

fold increase in binding [1]: 45 fold | fold increase in binding [2]: 21 fold
B1: Penetratin1-XBIR3 conjugate (other)
chain 1: CRQIKIWFQNRRMKWKK
chain 2: MGSSHHHHHHSSGLVPRGSHMSTNTCLPRNPSMADYEARIFTFGTWIYSVNKEQLARAGFYTDWALGEGDKVKCFHCGGGLRPSEDPWEQHARWYPGCRYLLEQRGQEYINNIHLTHS
modifications: N-terminal C(NPys) as printed; linked to XBIR3 by a disulfide bond (-s-s-); linked to Penetratin1 by a disulfide bond
